Where a chain is given by its changes, count along the chain named.

Assay [1] deals with T1, human ASCT2 (system ASC amino acid transporter 2, SLC1A5) (human, UniProt Q15758 1-541).
T1 sequence (looked up): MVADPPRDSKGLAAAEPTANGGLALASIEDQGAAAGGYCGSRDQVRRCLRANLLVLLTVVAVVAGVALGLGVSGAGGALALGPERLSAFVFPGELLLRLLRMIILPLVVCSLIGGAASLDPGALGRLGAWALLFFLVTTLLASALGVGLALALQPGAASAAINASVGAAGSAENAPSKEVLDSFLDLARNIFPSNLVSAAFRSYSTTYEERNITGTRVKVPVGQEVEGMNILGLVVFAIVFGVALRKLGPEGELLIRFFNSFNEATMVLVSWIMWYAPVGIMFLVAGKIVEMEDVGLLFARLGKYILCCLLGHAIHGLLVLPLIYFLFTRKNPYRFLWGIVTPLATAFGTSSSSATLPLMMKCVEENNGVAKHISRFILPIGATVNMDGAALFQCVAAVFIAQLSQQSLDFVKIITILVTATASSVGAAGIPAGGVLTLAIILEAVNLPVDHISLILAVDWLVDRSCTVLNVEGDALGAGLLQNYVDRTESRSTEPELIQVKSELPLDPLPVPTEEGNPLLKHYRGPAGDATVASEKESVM
Put plainly: cell-based or functional assay.

Assay [2] addresses T1, human ASCT2 (system ASC amino acid …). Put plainly: binding to CHOK1 cells stably expressing human ASCT2; clones conjugated to tubulysin AZ1508 per paragraph 353.
The target in assay [3] is T2, cynomolgus monkey ASCT2 (cynomolgus monkey (Macaca fascicularis), UniProt G7PXZ3 1-542).
T2 construct: whole, on cells; Present on stably transfected CHOK1 cells or endogenously on the cyno cell line CynoMK1; also called cyno ASCT2; CynoASCT2
T2 sequence: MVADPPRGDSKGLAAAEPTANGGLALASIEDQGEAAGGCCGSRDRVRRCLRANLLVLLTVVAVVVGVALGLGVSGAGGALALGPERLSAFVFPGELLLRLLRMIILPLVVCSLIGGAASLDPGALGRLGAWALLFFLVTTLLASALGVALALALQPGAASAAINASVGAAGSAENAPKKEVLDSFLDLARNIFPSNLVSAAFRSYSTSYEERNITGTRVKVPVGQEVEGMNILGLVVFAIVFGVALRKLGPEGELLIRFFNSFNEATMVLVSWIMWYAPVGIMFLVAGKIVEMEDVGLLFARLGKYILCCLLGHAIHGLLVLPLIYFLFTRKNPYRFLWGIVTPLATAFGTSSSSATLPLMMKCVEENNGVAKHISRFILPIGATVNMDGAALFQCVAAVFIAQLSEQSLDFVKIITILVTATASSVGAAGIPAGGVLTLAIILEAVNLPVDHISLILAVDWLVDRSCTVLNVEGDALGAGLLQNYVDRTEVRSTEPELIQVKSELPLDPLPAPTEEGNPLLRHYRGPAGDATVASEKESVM
Put plainly: binding to CHOK1 cells stably expressing cyno ASCT2; clones conjugated to tubulysin AZ1508 per paragraph 353.

Assay [4] concerns the target T2, cynomolgus monkey ASCT2. Nature of the assay: cell-based or functional assay.
Assay [5] concerns the target T1, human ASCT2 (system ASC amino acid …). Nature of the assay: cell-based or functional assay. The source holds these as a separate data set.
Assay [6] shares this target. Nature of the assay: flow cytometry, titration of fluorophore-labelled antibody on FaDu cells. As for the experimental part: (§1) Human, cynomolgous monkey, and CHO-derived cell lines expressing ASCT2 were utilized to assessed binding affinity and cross reactivity of ASCT2-specific antibodies. Apparent affinities were measured by titrating fluorophore labeled antibodies.
(§2) Results for human cancer cell line Ca127 are shown in FIG. 6A; results for human cancer cell line FaDu are shown in FIG. 6B; results for human cancer cell line SSC15 are shown in FIG. 6C; results for human cancer cell line WiDr are shown in FIG. 6D; results for CHOK1 cells stably expressing human ASCT2 are shown in FIG. 6E; results for CHOK1 cells stably expressing cyno ASCT2 are shown in FIG. 6F); results for cyno cancer cell line CynoMK1 are shown in FIG. 6G; and results for mock transfected CHOK1 cells are shown in FIG. 6H.
A general note: Flow cytometry measures light scatter and fluorescence of single cells or particles in a stream.

The target of another assay is T3, ASCT1 (SLC1A4) (human, UniProt P43007 1-532).
T3 construct: whole, on cells; also called ASC transporter 1; human ASCT1
T3 sequence (looked up): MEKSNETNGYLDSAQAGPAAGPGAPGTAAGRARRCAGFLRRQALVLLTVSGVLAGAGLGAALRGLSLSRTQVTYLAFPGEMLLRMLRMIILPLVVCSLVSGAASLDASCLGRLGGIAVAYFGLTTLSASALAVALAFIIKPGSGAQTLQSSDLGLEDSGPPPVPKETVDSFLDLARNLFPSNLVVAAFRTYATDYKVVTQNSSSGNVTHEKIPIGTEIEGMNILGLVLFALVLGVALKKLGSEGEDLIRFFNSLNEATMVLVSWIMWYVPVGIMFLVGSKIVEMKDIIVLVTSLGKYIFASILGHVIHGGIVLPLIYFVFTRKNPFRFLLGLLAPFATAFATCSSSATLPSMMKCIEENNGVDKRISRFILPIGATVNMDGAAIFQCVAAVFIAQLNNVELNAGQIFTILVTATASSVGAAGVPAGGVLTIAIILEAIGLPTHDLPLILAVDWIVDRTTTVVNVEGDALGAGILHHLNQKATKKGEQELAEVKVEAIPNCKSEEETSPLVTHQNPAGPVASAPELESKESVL
Nature of the assay: flow cytometry on SKMEL-2 cells after shRNA knockdown of ASCT1 (binding not ablated).

The target in assay [7] is T1, human ASCT2 (system ASC amino acid …). Nature of the assay: flow cytometry, titration of fluorophore-labelled antibody on WiDr cells. As for the experimental part: as §1, §2
For assay [8], the target named is T2, cynomolgus monkey ASCT2. Put plainly: flow cytometry, titration of fluorophore-labelled antibody on cyno cell line Cyno MK1. As for the experimental part:
as §1, §2

Assay [9] concerns the target T1, human ASCT2 (system ASC amino acid …). Put plainly: flow cytometry, titration of fluorophore-labelled antibody on CHOK1 cells stably expressing human ASCT2. How it is done: as §1, §2
Assay [10] concerns the target T2, cynomolgus monkey ASCT2. Nature of the assay: flow cytometry, titration of fluorophore-labelled antibody on CHOK1 cells stably expressing cyno ASCT2. How it is done:
as §1, §2

Assay [11] deals with T1, human ASCT2 (system ASC amino acid …). Put plainly: flow cytometry, titration of fluorophore-labelled antibody on SSC15 cells. How it is done:
as §1, §2

Assay [12] has the same target. Put plainly: flow cytometry, titration of fluorophore-labelled antibody on Cal27 cells. As for the experimental part: as §1, §2
Assay [13] has the same target. Put plainly: cell-based or functional assay. This is another data set of the same source.
Assay [14] has the same target. Nature of the assay: flow cytometry on WiDr cells and CHO cells expressing HuASCT2. The source says: The amino acid sequences of the VH and VL domains for 17c10 were aligned to the known human germline sequences in the VBASE database, and the closest germline was identified by sequence similarity. For the VH domain, this was IgVh4-34*01; for the VL domain, it was IgKv1-5*03. For 17c10, the germlining process involved reverting 1 framework residue in the VH domain and 5 residues in the VL domain. In the VH domain, the reversion mutation was at Kabat position 82a, where threonine (T) was reverted to serine (S). In the VL domain, the mutations were at Kabat position 13, 21, 39, 70, and 76 where at Kabat position 13 threonine (T) was reverted to alanine (A); at Kabat position 21 leucine (L) was reverted to isoleucine (I); at Kabat position 39 Asparagine (N) was reverted to lysine (K); at Kabat position 70 aspartate (D) was reverted to glutamate (E), and at Kabat position 76 threonine (T) was reverted to serine (S). These changes were made by synthesizing VH and VL domains with these mutations and replacing existing VH and VL using restriction digestion and ligation. Both the germlined and original (non-germlined) 17c10 were expressed as IgGs, and their affinity to multiple ASCT2-expressing cell lines was assessed by flow cytometry.

B1: anti-ASCT2 17C10 classically conjugated to tubulysin AZ1508 (antibody, human IgG1, V domains shown)
VH: QVQLQQWGAGLLKPSETLSLTCAVYGGSFSGYYWSWIRQPPGKGLEWIGEIHHSGGANYNPSLKSRVTISVDTSKNQFSLKLTSVTAADTAVYYCARGQGKNWHYDYFDYWGQGTLVTVSS
VL: DIQMTQSPSTLSTSVGDRVTLTCRASQSIRSWLAWYQQNPGKAPKLLIYKASILKIGVPSRFSGSGSGTDFTLTITSLQPDDFATYYCQQYYSYSRTFGQGTKVEIK
modifications: tubulysin AZ1508 conjugated classically (native cysteine residues, thiol-maleimide linkage); positions not given
As for B1, in assay [1], the “IC50 (ng/ml), ADC-mediated cytotoxic killing, SW48 cells, CellTiter-Glo, 72 h” value came out at 46 ng/mL.

B2: anti-ASCT2 1E8 classically conjugated to tubulysin AZ1508 (antibody, human IgG1, V domains shown)
VH: B1 VH with R38P, L45V, H52N, G56S, A57T, V71S, H104N
VL: B1 VL with T13A, N39K, I53S, I56S, T76S, Y94F
modifications: tubulysin AZ1508 conjugated classically (native cysteine residues, thiol-maleimide linkage); positions not given
Take B2: the “IC50 (ng/ml), ADC-mediated cytotoxic killing, SW48 cells, CellTiter-Glo, 72 h” value in assay [1] turned out to be 34.8 ng/mL.

B3: anti-ASCT2 antibody 1e8 conjugated to tubulysin AZ1508 (Example 4) (antibody, V domains shown)
VH: B1 VH with R38P, L45V, H52N, G56S, A57T, V71S, H104N
VL: B1 VL with T13A, N39K, I53S, I56S, T76S, Y94F
modifications: tubulysin AZ1508 conjugated; mode and site of conjugation not stated for these experiments
notes: Antibody-drug conjugate; also called 1e8 conjugated to tubulysin 1508
For orientation: EC50 means the concentration giving half of the maximal effect. Regarding B3, the concentration giving a half-maximal response (EC50) was 8.1 nM in assay [2] and 28.4 nM with cynomolgus monkey ASCT2 [3]. For the same molecule, the “Cytotoxicity IC50 (ng/ml), CHOK1 cells stably expressing cyno ASCT2” value with cynomolgus monkey ASCT2 [4] was 140 ng/mL. Also, the “Cytotoxicity IC50 (ng/ml), CHOK1 cells stably expressing human ASCT2” value in assay [5] was 20.7 ng/mL.

B4: anti-ASCT2 antibody 17c10 (original, non-germlined, parental) (antibody, V domains shown)
VH: B1 VH
VL: B1 VL
notes: also called 17c10 parental antibody; ASCT2 mAb 17c10
Consider B4, for which the EC50 in assay [6] is 3.8 nM; in assay [7], 7 nM; with cynomolgus monkey ASCT2 [8] it was 6.7 nM; in assay [9], 8.6 nM; with cynomolgus monkey ASCT2 [10] it was 9.6 nM; in [11], 3.6 nM. Also, the response in assay [12] was half-maximal at 2.8 nM (EC50). Moreover, in the assay with ASCT1 (SLC1A4), the binding result is recorded as “no binding”.

B5: anti-ASCT2 antibody 1e8 (original) (antibody, V domains shown)
VH: B1 VH with R38P, L45V, H52N, G56S, A57T, V71S, H104N
VL: B1 VL with T13A, N39K, I53S, I56S, T76S, Y94F
notes: also called ASCT2 mAb 1e8
For B5, the EC50 in assay [6] is 6.8 nM; in assay [7] it was 5.8 nM; with cynomolgus monkey ASCT2 [8], 14.8 nM; in assay [9] it was 8.1 nM; in the assay with cynomolgus monkey ASCT2 [10], 28.4 nM; in assay [11], 8.8 nM. The same molecule had an EC50 in [12] of 13 nM.

B6: anti-ASCT2 antibody 17c10 conjugated to tubulysin AZ1508 (17c10-AZ1508, Example 4) (antibody, V domains shown)
VH: B1 VH
VL: B1 VL
modifications: tubulysin AZ1508 conjugated; mode and site of conjugation not stated for these experiments
notes: Antibody-drug conjugate; also called 17c10-ADC; ASCT2-ADC
B6 displayed an EC50 in assay [2] of 8.6 nM. In the assay with cynomolgus monkey ASCT2 [3], the midpoint of the response, the EC50, lay at 9.6 nM. Besides, in [13], the “IC50 (ng/ml), cytotoxic killing of SKMEL-2 cells with ASCT1-shRNA1” value was 7.59 ng/mL; the “IC50 (ng/ml), cytotoxic killing of SKMEL-2 cells with ASCT1-shRNA2” value amounted to 4.96 ng/mL; the “IC50 (ng/ml), cytotoxic killing of SKMEL-2 cells with ASCT2-shRNA” value was determined as 205 ng/mL; the “IC50 (ng/ml), cytotoxic killing of SKMEL-2 cells with NTshRNA” value was determined as 14.3 ng/mL. Further, the “Cytotoxicity IC50 (ng/ml), CHOK1 cells stably expressing cyno ASCT2” value in the assay with cynomolgus monkey ASCT2 [4] stood at 8.59 ng/mL. Also, in [5], the “Cytotoxicity IC50 (ng/ml), CHOK1 cells stably expressing human ASCT2” value is 5.53 ng/mL.

B7: germlined 17c10 antibody (antibody, V domains shown)
VH: B1 VH with T83S
VL: B1 VL with T13A, L21I, N39K, D70E, T76S
notes: also called 17c10 germlined antibody
For B7, in [14], the binding result is “binds”.

The record behind these values is patent US20190367605A1 (AstraZeneca / MedImmune, published 2019).
